According to paper PMC12245071:

Biological target: Bacteriophage T4 capsid, major capsid protein gp23* (bacteriophage T4)
Test: co-sedimentation

M2e-Hoc fusion (influenza M2e peptide on the tip of the T4 Hoc fiber)
copies per capsid (copies per capsid): 90

Soc-SpyCatcher displayed on the T4 phage capsid (T4-SpyCatcher phage) (designed binder)
copies per capsid (copies per capsid): 205
